Test results reported in US20140308678A1 (ONCOTHERAPY SCIENCE, published 2014).

How the values were obtained:
FLAG-HSP90AB1 (WT) [1] = target: T1, FLAG-HSP90AB1 (WT) (human, UniProt P08238 1-724); assay: anti-FLAG immunoprecipitation from 293T cells, Western blot with anti-Cdc37 (FIG. 5D); the wild type is the reference
T1 construct: Expressed in cells together with HA-SMYD2 (so it may be methylated by SMYD2 in the assay); not shown: FLAG tag
Protocol: (§1) Then, cell lysates were immunoblotted with anti-FLAG, anti-SMYD2 and anti-ACTB (an internal control) antibodies. Part B depicts the results of immunoprecipitation analysis using 293T cells co-transfected with FLAG-Mock or FLAG-HSP90AB1 (WT) and HA-HSP90AB1 (WT or K531A/K574A) expression vectors in the presence of an HA-SMYD2 expression vector. Immunoprecipitation was performed using anti-FLAG^{(registered trademark)} M2 agarose beads, and samples were immunoblotted with anti-FLAG and anti-HA antibodies. Part C depicts the results of immunoprecipitation analysis using 293T cells co-transfected with FLAG-Mock or FLAG-HSP90AB1 (WT) and HA-HSP90AB1 (WT, K531A or K574A) expression vectors in the presence of an HA-SMYD2 expression vector. Immunoprecipitation was performed using anti-FLAG^{(registered trademark)} M2 agarose beads, and samples were immunoblotted with anti-FLAG and anti-HA antibodies. Part D and E depict that the methylation of K574 on HSP90AB1 is important for binding to some co-chaperones. 293T cells were transfected with FLAG-HSP90AB1 (WT) or FLAG-HSP90AB1 (K531A/K574A) (D), FLAG-Mock, FLAG-HSP90AB1 (WT), FLAG-HSP90AB1 (K531A) or FLAG-HSP90AB1 (K574A) (E) expression vectors, in the presence of an HA-SMYD2 expression vector. […]

[2] = target: T2, FLAG-HSP90AB1 (K531A/K574A) (human, UniProt P08238 1-724); assay: anti-FLAG immunoprecipitation from 293T cells, Western blot with anti-p23 (FIG. 5D)
T2 construct: Expressed in 293T cells in the presence of HA-SMYD2; also called K531A/K574A substitution of HSP90AB1; not shown: FLAG tag
T2 sequence (P08238 whole entry K531A/K574A): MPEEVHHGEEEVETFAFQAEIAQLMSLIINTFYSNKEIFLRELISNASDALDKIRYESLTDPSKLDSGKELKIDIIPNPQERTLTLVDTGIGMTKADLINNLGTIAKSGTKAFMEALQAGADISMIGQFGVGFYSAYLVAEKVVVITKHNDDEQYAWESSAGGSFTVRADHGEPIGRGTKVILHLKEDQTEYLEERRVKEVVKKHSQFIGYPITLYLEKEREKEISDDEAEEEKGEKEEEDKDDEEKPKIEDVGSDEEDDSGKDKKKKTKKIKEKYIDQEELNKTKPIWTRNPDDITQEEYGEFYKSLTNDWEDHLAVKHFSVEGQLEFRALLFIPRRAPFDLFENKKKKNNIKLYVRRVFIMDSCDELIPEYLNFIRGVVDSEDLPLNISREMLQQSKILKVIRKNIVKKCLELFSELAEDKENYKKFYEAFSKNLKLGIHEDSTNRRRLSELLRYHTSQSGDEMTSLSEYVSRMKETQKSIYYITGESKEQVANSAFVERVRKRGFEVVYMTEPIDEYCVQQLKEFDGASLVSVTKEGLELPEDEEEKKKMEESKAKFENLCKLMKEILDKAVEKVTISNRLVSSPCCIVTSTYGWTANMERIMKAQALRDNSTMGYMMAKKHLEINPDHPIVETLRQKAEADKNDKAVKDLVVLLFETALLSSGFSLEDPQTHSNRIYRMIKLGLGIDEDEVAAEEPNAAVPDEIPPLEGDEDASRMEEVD
Protocol: as §1

FLAG-HSP90AB1 (K574A) = target: T3, FLAG-HSP90AB1 (K574A) (human, UniProt P08238 1-724); assay: anti-FLAG immunoprecipitation from 293T cells, Western blot with anti-p23 (FIG. 5E)
T3 construct: Expressed in 293T cells in the presence of HA-SMYD2; not shown: FLAG tag
T3 sequence (P08238 whole entry K574A): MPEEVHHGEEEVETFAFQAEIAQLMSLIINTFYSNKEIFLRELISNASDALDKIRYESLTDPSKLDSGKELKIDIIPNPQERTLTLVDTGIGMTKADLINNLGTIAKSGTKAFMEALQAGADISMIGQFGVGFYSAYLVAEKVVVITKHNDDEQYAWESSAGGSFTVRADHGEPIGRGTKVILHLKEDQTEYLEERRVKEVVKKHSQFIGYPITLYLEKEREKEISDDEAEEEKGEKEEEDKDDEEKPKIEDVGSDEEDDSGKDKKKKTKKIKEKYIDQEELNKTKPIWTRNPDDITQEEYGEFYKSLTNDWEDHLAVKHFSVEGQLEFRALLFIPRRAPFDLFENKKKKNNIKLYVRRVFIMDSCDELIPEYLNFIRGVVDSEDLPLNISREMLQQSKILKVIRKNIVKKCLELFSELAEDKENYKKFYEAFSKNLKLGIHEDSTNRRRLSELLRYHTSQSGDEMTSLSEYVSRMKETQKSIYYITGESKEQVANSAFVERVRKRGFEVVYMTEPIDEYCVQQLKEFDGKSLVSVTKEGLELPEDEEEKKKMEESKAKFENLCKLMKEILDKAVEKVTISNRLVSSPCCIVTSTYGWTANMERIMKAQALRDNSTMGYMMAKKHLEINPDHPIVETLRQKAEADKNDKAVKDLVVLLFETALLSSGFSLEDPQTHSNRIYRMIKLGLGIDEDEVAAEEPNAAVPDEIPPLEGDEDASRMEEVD
Protocol: as §1

FLAG-HSP90AB1 (WT) [3] = target: T1, FLAG-HSP90AB1 (WT); assay: anti-FLAG immunoprecipitation from 293T cells, Western blot with anti-p23 (FIG. 5D); the wild type is the reference
Protocol: as §1

T1 sequence (P08238 whole entry): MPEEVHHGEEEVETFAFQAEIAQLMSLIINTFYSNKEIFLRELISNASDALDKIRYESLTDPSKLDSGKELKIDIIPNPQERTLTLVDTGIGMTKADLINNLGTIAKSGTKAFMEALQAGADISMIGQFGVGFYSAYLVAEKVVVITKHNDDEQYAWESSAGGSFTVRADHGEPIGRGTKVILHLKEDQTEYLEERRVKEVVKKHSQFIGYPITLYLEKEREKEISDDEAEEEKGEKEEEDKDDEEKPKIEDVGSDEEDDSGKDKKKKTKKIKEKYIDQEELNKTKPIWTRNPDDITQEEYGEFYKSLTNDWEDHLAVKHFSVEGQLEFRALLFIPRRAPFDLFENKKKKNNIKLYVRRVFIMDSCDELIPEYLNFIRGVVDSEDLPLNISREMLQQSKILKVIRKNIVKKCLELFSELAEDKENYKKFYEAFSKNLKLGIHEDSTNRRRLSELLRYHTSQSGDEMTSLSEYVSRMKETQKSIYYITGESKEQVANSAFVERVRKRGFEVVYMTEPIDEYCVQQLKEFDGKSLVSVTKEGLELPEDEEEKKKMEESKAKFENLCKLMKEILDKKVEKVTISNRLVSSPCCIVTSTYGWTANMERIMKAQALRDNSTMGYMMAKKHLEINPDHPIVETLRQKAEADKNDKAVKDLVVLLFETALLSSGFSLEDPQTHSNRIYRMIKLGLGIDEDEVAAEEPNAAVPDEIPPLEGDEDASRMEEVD

B1: Cdc37 (other, UniProt Q16543 1-378, looked up)
chain: MVDYSVWDHIEVSDDEDETHPNIDTASLFRWRHQARVERMEQFQKEKEELDRGCRECKRKVAECQRKLKELEVAEGGKAELERLQAEAQQLRKEERSWEQKLEEMRKKEKSMPWNVDTLSKDGFSKSMVNTKPEKTEEDSEEVREQKHKTFVEKYEKQIKHFGMLRRWDDSQKYLSDNVHLVCEETANYLVIWCIDLEVEEKCALMEQVAHQTIVMQFILELAKSLKVDPRACFRQFFTKIKTADRQYMEGFNDELEAFKERVRGRAKLRIEKAMKEYEEEERKKRLGPGGLDPVEVYESLPEELQKCFDVKDVQMLQDAISKMDPTDAKYHMQRCIDSGLWVPNSKASEAKEGEEAGPGDPLLEAVPKTGDEKDVSV
notes: Endogenous in 293T cell lysate
Does B1 bind (FLAG-HSP90AB1 (WT) [1])?
Result: binds

B2: p23 (other, UniProt Q15185 1-160, looked up)
chain: MQPASAKWYDRRDYVFIEFCVEDSKDVNVNFEKSKLTFSCLGGSDNFKHLNEIDLFHCIDPNDSKHKRTDRSILCCLRKGESGQSWPRLTKERAKLNWLSVDFNNWKDWEDDSDEDMSNFDRFSEMMNNMGGDEDVDLPEVDGADDDSQDSDDEKMPDLE
notes: as for B1
What does the source list for B2?
binding result [2]: binds; binding result (FLAG-HSP90AB1 (K574A)): binds; binding result (FLAG-HSP90AB1 (WT) [3]): binds
